First the molecules themselves.
B4: GST-Sec23p (natural protein, yeast)
chain: DFETNEDINGVRFTWNVFPSTRSDANSNVVPVGCLYTPLKEYDELNVAPYNPVVCSGPHCKSILNPYCVIDPRNSSWSCPICNSRNHLPPQYTNLSQENMPLELQSTTIEYITNKPVTVPPIFFFVVDLTSETENLDSLKESIITSLSLLPPNALIGLITYGNVVQLHDLSSETIDRCNVFRGDREYQLEALTEMLTGQKPTGPGGAASHLPNAMNKVTPFSLNRFFLPLEQVEFKLNQLLENLSPDQWSVPAGHRPLRATGSALNIASLLLQGCYKNIPARIILFASGPGTVAPGLIVNSELKDPLRSHHDIDSDHAQHYKKACKFYNQIAQRVAANGHTVDIFAGCYDQIGMSEMKQLTDSTGGVLLLTDAFSTAIFKQSYLRLFAKDEEGYLKMAFNGNMAVKTSKDLKVQGLIGHASAVKKTDANNISESEIGIGATSTWKMASLSPYHSYAIFFEIANTAANSNPMMSAPGSADRPHLAYTQFITTYQHSSGTNRIRVTTVANQLLPFGTPAIAASFDQEAAAVLMARIAVHKAETDDGADVIRWLDRTLIKLCQKYADYNKDDPQSFRLAPNFSLYPQFTYYLRRSQFLSVFNNSPDETAFYRHIFTREDTTNSLIMIQPTLTSFSMEDDPQPVLLDSISVKPNTILLLDTFFFILIYHGEQIAQWRKAGYQDDPQYADFKALLEEPKLEAAELLVDRFPLPRFIDTEAGGSQARFLLSKLNPSDNYQDMARGGSTIVLTDDVSLQNFMTHLQQVAVSGQA

One experiment concerns the target T1, His6-Sec24p (yeast, UniProt P40482 1-926).
T1 sequence (looked up): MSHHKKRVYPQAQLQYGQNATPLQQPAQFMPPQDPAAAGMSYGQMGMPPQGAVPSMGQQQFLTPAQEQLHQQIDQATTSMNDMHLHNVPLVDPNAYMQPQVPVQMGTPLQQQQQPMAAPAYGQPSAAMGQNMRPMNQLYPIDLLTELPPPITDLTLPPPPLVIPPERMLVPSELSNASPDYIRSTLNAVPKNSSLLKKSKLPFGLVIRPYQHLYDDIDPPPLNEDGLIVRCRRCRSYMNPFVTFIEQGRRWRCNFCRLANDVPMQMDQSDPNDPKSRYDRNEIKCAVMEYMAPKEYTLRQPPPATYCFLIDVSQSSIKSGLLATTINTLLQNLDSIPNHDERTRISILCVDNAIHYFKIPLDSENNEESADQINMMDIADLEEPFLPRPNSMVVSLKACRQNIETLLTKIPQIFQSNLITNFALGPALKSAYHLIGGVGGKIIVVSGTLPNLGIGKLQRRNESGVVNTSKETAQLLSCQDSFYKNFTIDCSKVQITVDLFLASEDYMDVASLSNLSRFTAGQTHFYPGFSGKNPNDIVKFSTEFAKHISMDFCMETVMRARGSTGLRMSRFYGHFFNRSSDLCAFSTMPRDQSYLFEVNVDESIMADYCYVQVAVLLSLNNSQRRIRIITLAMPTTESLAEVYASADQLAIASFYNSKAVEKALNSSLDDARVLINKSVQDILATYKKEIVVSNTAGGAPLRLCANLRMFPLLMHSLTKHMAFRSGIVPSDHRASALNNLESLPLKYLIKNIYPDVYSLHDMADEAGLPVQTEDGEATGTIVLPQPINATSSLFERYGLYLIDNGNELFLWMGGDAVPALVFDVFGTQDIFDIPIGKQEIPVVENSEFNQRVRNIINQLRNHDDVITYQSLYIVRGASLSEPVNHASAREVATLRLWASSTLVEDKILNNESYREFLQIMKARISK
The experiment is described as follows: pull-down.

The experiment “GST-Sec23p” addresses B4. The experiment is described as follows: pull-down.

Results on five molecules are retold here after paper PMC3093450 (Nature, 2011).

B1: GST-Sec23p S742D (natural protein, yeast)
chain: DFETNEDINGVRFTWNVFPSTRSDANSNVVPVGCLYTPLKEYDELNVAPYNPVVCSGPHCKSILNPYCVIDPRNSSWSCPICNSRNHLPPQYTNLSQENMPLELQSTTIEYITNKPVTVPPIFFFVVDLTSETENLDSLKESIITSLSLLPPNALIGLITYGNVVQLHDLSSETIDRCNVFRGDREYQLEALTEMLTGQKPTGPGGAASHLPNAMNKVTPFSLNRFFLPLEQVEFKLNQLLENLSPDQWSVPAGHRPLRATGSALNIASLLLQGCYKNIPARIILFASGPGTVAPGLIVNSELKDPLRSHHDIDSDHAQHYKKACKFYNQIAQRVAANGHTVDIFAGCYDQIGMSEMKQLTDSTGGVLLLTDAFSTAIFKQSYLRLFAKDEEGYLKMAFNGNMAVKTSKDLKVQGLIGHASAVKKTDANNISESEIGIGATSTWKMASLSPYHSYAIFFEIANTAANSNPMMSAPGSADRPHLAYTQFITTYQHSSGTNRIRVTTVANQLLPFGTPAIAASFDQEAAAVLMARIAVHKAETDDGADVIRWLDRTLIKLCQKYADYNKDDPQSFRLAPNFSLYPQFTYYLRRSQFLSVFNNSPDETAFYRHIFTREDTTNSLIMIQPTLTSFSMEDDPQPVLLDSISVKPNTILLLDTFFFILIYHGEQIAQWRKAGYQDDPQYADFKALLEEPKLEAAELLVDRFPLPRFIDTEAGGSQARFLLSKLNPSDNYQDMARGGDTIVLTDDVSLQNFMTHLQQVAVSGQA
For the molecule B1, the binding result in the experiment with His6-Sec24p was “binds”.

B2: GST-Sec23p S742D/T747E (natural protein, yeast)
chain: DFETNEDINGVRFTWNVFPSTRSDANSNVVPVGCLYTPLKEYDELNVAPYNPVVCSGPHCKSILNPYCVIDPRNSSWSCPICNSRNHLPPQYTNLSQENMPLELQSTTIEYITNKPVTVPPIFFFVVDLTSETENLDSLKESIITSLSLLPPNALIGLITYGNVVQLHDLSSETIDRCNVFRGDREYQLEALTEMLTGQKPTGPGGAASHLPNAMNKVTPFSLNRFFLPLEQVEFKLNQLLENLSPDQWSVPAGHRPLRATGSALNIASLLLQGCYKNIPARIILFASGPGTVAPGLIVNSELKDPLRSHHDIDSDHAQHYKKACKFYNQIAQRVAANGHTVDIFAGCYDQIGMSEMKQLTDSTGGVLLLTDAFSTAIFKQSYLRLFAKDEEGYLKMAFNGNMAVKTSKDLKVQGLIGHASAVKKTDANNISESEIGIGATSTWKMASLSPYHSYAIFFEIANTAANSNPMMSAPGSADRPHLAYTQFITTYQHSSGTNRIRVTTVANQLLPFGTPAIAASFDQEAAAVLMARIAVHKAETDDGADVIRWLDRTLIKLCQKYADYNKDDPQSFRLAPNFSLYPQFTYYLRRSQFLSVFNNSPDETAFYRHIFTREDTTNSLIMIQPTLTSFSMEDDPQPVLLDSISVKPNTILLLDTFFFILIYHGEQIAQWRKAGYQDDPQYADFKALLEEPKLEAAELLVDRFPLPRFIDTEAGGSQARFLLSKLNPSDNYQDMARGGDTIVLEDDVSLQNFMTHLQQVAVSGQA
Take B2: in the experiment with His6-Sec24p, the binding result was “binds”.

B3: GST-Sec23p T747E (natural protein, yeast)
chain: DFETNEDINGVRFTWNVFPSTRSDANSNVVPVGCLYTPLKEYDELNVAPYNPVVCSGPHCKSILNPYCVIDPRNSSWSCPICNSRNHLPPQYTNLSQENMPLELQSTTIEYITNKPVTVPPIFFFVVDLTSETENLDSLKESIITSLSLLPPNALIGLITYGNVVQLHDLSSETIDRCNVFRGDREYQLEALTEMLTGQKPTGPGGAASHLPNAMNKVTPFSLNRFFLPLEQVEFKLNQLLENLSPDQWSVPAGHRPLRATGSALNIASLLLQGCYKNIPARIILFASGPGTVAPGLIVNSELKDPLRSHHDIDSDHAQHYKKACKFYNQIAQRVAANGHTVDIFAGCYDQIGMSEMKQLTDSTGGVLLLTDAFSTAIFKQSYLRLFAKDEEGYLKMAFNGNMAVKTSKDLKVQGLIGHASAVKKTDANNISESEIGIGATSTWKMASLSPYHSYAIFFEIANTAANSNPMMSAPGSADRPHLAYTQFITTYQHSSGTNRIRVTTVANQLLPFGTPAIAASFDQEAAAVLMARIAVHKAETDDGADVIRWLDRTLIKLCQKYADYNKDDPQSFRLAPNFSLYPQFTYYLRRSQFLSVFNNSPDETAFYRHIFTREDTTNSLIMIQPTLTSFSMEDDPQPVLLDSISVKPNTILLLDTFFFILIYHGEQIAQWRKAGYQDDPQYADFKALLEEPKLEAAELLVDRFPLPRFIDTEAGGSQARFLLSKLNPSDNYQDMARGGSTIVLEDDVSLQNFMTHLQQVAVSGQA
Turning to B3, the binding result with His6-Sec24p was “binds”. Still for that read-out and setting: with B4 the entry was “binds”.

B5: His6-Hrr25p (enzyme, yeast, UniProt P29295 1-494, looked up)
chain: MDLRVGRKFRIGRKIGSGSFGDIYHGTNLISGEEVAIKLESIRSRHPQLDYESRVYRYLSGGVGIPFIRWFGREGEYNAMVIDLLGPSLEDLFNYCHRRFSFKTVIMLALQMFCRIQYIHGRSFIHRDIKPDNFLMGVGRRGSTVHVIDFGLSKKYRDFNTHRHIPYRENKSLTGTARYASVNTHLGIEQSRRDDLESLGYVLIYFCKGSLPWQGLKATTKKQKYDRIMEKKLNVSVETLCSGLPLEFQEYMAYCKNLKFDEKPDYLFLARLFKDLSIKLEYHNDHLFDWTMLRYTKAMVEKQRDLLIEKGDLNANSNAASASNSTDNKSETFNKIKLLAMKKFPTHFHYYKNEDKHNPSPEEIKQQTILNNNAASSLPEELLNALDKGMENLRQQQPQQQVQSSQPQPQPQQLQQQPNGQRPNYYPEPLLQQQQRDSQEQQQQVPMATTRATQYPPQINSNNFNTNQASVPPQMRSNPQQPPQDKPAGQSIWL
As usually defined, the Kd is the concentration at which binding is half-saturated. Read a low Kd as a tighter complex. B5: in the experiment with GST-Sec23p, the Kd was 43 nM.
